# Data: the nanobody polyreactivity screen of Harvey et al. (2022)
# Experiment: yeast display, Sf9 membrane polyspecificity reagent, FACS + sequencing; frameworks hold sequencing errors
# Outline: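 After 36–48 hours of galactose induction, yeast (Saccharomyces cerevisiae BJ5465) displaying a synthetic nanobody library were stained at 4 °C for 1 hour with 10% biotinylated, detergent-solubilized Sf9 membrane reagent. Streptavidin microbeads enriched the stained cells before FACS sorting into low and high (top ~1%) gates on anti-HA and streptavidin fluorescence. Each clone's polyreactivity label reflects its gate of origin.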
row,Sequence,polyreactivity (PSR sort gate)
1,QVQLVESGGGLVQAGGSLRLSCAASGRNLLYYGMGWYRQAPGKERELVAVISRGGSTYYADSVKGRFTISRDNAKNTVYLQMNSLKPEDTAVYYCAKRIYYGGVATKSLMDYWGQGTQVTVSS,high polyreactivity
2,QVQLVESGGGLVQAGGSLRLSCAASGRNLRWYAMGWYRPAPGKERELVAAISTRSGSTYYADSVKGRFTISRDNAKNTVYLQMNSLKPEDTAVYYCAAQFWVKGQPQYGYLGQGTQVTVSS,high polyreactivity
3,QVQLVESGGGLVQAGGSLRLSCAASGRNLYYYAMGWYRQAPGKERELVAAITSGGSTYADSVKGRFTISRDNAKNTVYLQMNSLKPEDTAVYYCNARPVYGSRFYSAVRMEYWGQGTQVTVSS,low polyreactivity
4,QVQLVESGGGLVQAGGSLRLSCAASGRNSIYYALGWYRQAPGTDRELVAAITTTGSTKYADSVKGRFTISRDNAKKTVDLQMNSLKPEDTADYYCAARFSRWWVRYGYWGQATQVTVSS,high polyreactivity
5,QVQLVESGGGLVQAGGSLRLSCAASGRNYRYAMGWYRQAPGKEWALVAAISSGGRTNYADSVKGRFTISRDNAKNTVYLQMNSLKPEDTAVYYCAAEAPFYVKGRRYRGYDYWGQGTQVTVSS,high polyreactivity
6,QVQLVESGGGLVQAGGSLRLSCAASGRSFQDNAMGWYRQAPGKERELVAAISWRGGSTNYADSVKGRFTISRDNAKNTVYLQMNSLKPEDTAVYYCAKGIRRWYGGSDYWGQGTQVNVSS,low polyreactivity
7,QVQLVESGGGLVQAGGSLRLSCAASGRSFYVYAMGWYRQAPGMERELVATITRGGRTYYADSVKGRFTISRDNAKNTVYLQMNSLKPEDTAVSYCNDEDGSRRYRYEYWGHGTQVTVSS,high polyreactivity
8,QVQLVESGGGLVQAGGSLRLSCAASGRSFYYNAMGWYRQAPGKERELVAAIRSSGGTTYYADSVKGRFTISRDNAKNTVYLQMNSLKPEDTAVYYCAKDSNRYSYYSPYDSWGQGTQVTVSS,low polyreactivity
9,QVQLVESGGGLVQAGGSLRLSCAASGRSIYGYALGWYRQATRKERELVAAIHSGGSTYYADSVKGRFTISRDNAKNTVYLQKNSLKPEDTAVYYCAGYTAYRSRAYFYYWGQGTQVTVSS,high polyreactivity
10,QVQLVESGGGLVQAGGSLRLSCAASGRSLHHYAMGWYSQAPGKERELVAAIRWGGGSTYYADSVKGRFTISRDNAKNTVYLQMNSLNPEDPAVYSCAAEVVAGYDYSQYYYWGQGTQVTVST,low polyreactivity
11,QVQLVESGGGLVQAGGSLRLSCAASGRSLRGYAMGWYREAPGNEWVFVAAISSRGGSTYYADSVKGRLTLSRDNAKNTVYVQMNSLKPEDSAVYYCAAQWGRWYYGFNYRGQGTQVTVSS,high polyreactivity
12,QVQLVESGGGLVQAGGSLRLSCAASGRTAMGWYRHAPGKEREVVAAITGSGVSTYADSVKGRFTISRDNAKNTVYLQMNSLKPEDTAVYYCAADLPFVGGDYWGQGTQVYVSS,low polyreactivity
13,QVQLVESGGGLVQAGGSLRLSCAASGRTCAYNAMGWYRQAPGKERELVAAITDSDGNTYYADSVKGRFTISRDNAKNTVYLQMNSLKPEDTAVYYCAADYIILDHVTRGFGYEYWGQGTQVTVSS,low polyreactivity
14,QVQLVESGGGLVQAGGSLRLSCAASGRTCGSNVMGWYRQAPGKERELVAAISRSGGSTHYADSVKGRFTISRDKAKNSVYLQMKSLNPEDTAVYYCAARYSGGSAYGYGSLGQGTQVTVSS,high polyreactivity
15,QVQLVESGGGLVQAGGSLRLSCAASGRTCGYNAMGWYRQAPGKERELVAAISWSGTRSYYADSVKGRFTSSRDNAKNTVYLQMNSLKPEDTAVYYCAKRTLYGRTWSTSDYWGQGTQVTVSS,high polyreactivity
16,QVQLVESGGGLVQAGGSLRLSCAASGRTCKYYAMGWYRPAPGKEREEVAAINSGGITYYADSVKGRFTISRDNAKNTVYLQMNSLKPEDTAVYYCAKVWKIGVLRYPSYGYSYWGQGTQVTVSS,high polyreactivity
17,QVQLVESGGGLVQAGGSLRLSCAASGRTCYSYAMGWYRQAPGKVRALVAAITSSGSTNADSVKGRFTISRDNAKNTDYLQMNSLKPEDTAVYYCATRSYILGWRYDYWGQGTQVTVSS,high polyreactivity
18,QVQLVESGGGLVQAGGSLRLSCAASGRTCYYTMGWYRPAPGKDRELVAAITWSVDSTYYADSVKGRFTISRDNAKNTVYLHMNSLKPEVTAVYYCAVQPPPLNGLYDYWGQGTQVTVSS,low polyreactivity
19,QVQLVESGGGLVQAGGSLRLSCAASGRTDYRYAMGWYRQAPGKERELVAAISRSGGRTYYADSVKGRFTISRDNAKNTVYLQMNSQKPEDTAVYYCASRGLGSGPVVEGDYWGQGTQVTVSS,high polyreactivity
20,QVQLVESGGGLVQAGGSLRLSCAASGRTFAAYAMGWYRKAPGKEREFVADITYSGGSTTYADSVKGRFTISRDNAKNTVYLQMNSLKPEDTAVYDCIKLAYTRGWRGFVWYDYWGQGTQVTVSS,low polyreactivity
21,QVQLVESGGGLVQAGGSLRLSCAASGRTFADHTMGWYRQAPGKERELVARINSGSSTYYADSVKGRFTISRDNAKNTVYLQMNSLKPEDTAVYYCAARGSDYIRWYVGGRYGYWGQGTQVTVSS,low polyreactivity
22,QVQLVESGGGLVQAGGSLRLSCAASGRTFADYAMGWYRQAPGKERELVAAISWRGGSTYYADSVKGRFTISRDNAKNTVYLQMNSLKPEDTAVYYCNKAYPADYDYWGQGTQVTVSS,low polyreactivity

row,Sequence,polyreactivity (PSR sort gate)
1,QVQLVESGGGLVQAGGSLRLSCAASGRTFAFYAMGWYRPAPGKERDLVASISSSGDRTYYADSVKGRFTISRDNAKNTVYLQMNSLKPEDTAVYYCNRVEGGAYGSNFDYWGQATQVTVSS,high polyreactivity
2,QVQLVESGGGLVQAGGSLRLSCAASGRTFAFYTMGWYIQAPGKERELVAAITRTGSTSYADSVKGRFTISRDNAKNTVYLQMNSLKPEDTAVYFCASVGYPYTLWHQMDYWGQGTQVTVSS,low polyreactivity
3,QVQLVESGGGLVQAGGSLRLSCAASGRTFAGNAMGWYRPAPGTERELVADITRGGGSTYYADSVKGRFTISRDNAKNTVYLQMNSLKPEDTAVYYCAAATAFYYFISEYDYWGQGTQVTVSS,high polyreactivity
4,QVQLVESGGGLVQAGGSLRLSCAASGRTFAGNAMGWYRQAPGKERELVAAISQGGGSTYYADSVKGRFTISRDNAKNTVYLQMNSLKPEDTAVYYCAVDFRRYPGFDYWGQGTQVTVSS,low polyreactivity
5,QVQLVESGGGLVQAGGSLRLSCAASGRTFAGYAMGWYRQAPGKERELVAGISVDDSTTYYADSVKGRFTISRDNAKNTVYLQMNSLKPEDTAVYYCAAEREKTLYYLSRFDYWGQGTQVTVSS,low polyreactivity
6,QVQLVESGGGLVQAGGSLRLSCAASGRTFAGYAMGWYRQAPGKERELVAGITTSGGITYYADSVKGRFTISRDNAKNTVYLQMNSLKPEDTAVYYCNTGYYGRLRDDYWGQGTQVTVSS,high polyreactivity
7,QVQLVESGGGLVQAGGSLRLSCAASGRTFAIYVMGWYRQAPGKERELVAAISRGGSTYYADSVKGRFTISRDNAKNTVYLQMNSLKPEDTAVYYFAAGTGTTSRYYYWGQGTQVTVSS,high polyreactivity
8,QVQLVESGGGLVQAGGSLRLSCAASGRTFAIYVMGWYRQAPGKERELVAAITRVGSTYADSVKGRFTISRDNAKNTVYVQMNSLKPEDTAVYYCAAVSGVRSGPWRYDYWGQGTQVTVSS,high polyreactivity
9,QVQLVESGGGLVQAGGSLRLSCAASGRTFALNAMGWSRQAPGKERELVAAISWSSGRTYYADSVKGRFTISRDIAKNTVYLQMNSLKPEDTAVYYCAAYAQKRYYWGQGTQVTVSS,high polyreactivity
10,QVQLVESGGGLVQAGGSLRLSCAASGRTFALNAMGWYRQAPGKERELVADISYSGGSTYYADSVKGRFTISRDNAKNTVYLQMNSLKPEDTAVYYCAADSPWYVAYYYGYRVDYWGQGTQVTVSS,high polyreactivity
11,QVQLVESGGGLVQAGGSLRLSCAASGRTFALYAMGWYRQATGKERELVAAITWSGGSTYYADSVKGRFTISRDNAKNTVYLQMNSLKPEDTAVYYCAAQWPKSKYGYWGQGTQVTVSS,high polyreactivity
12,QVQLVESGGGLVQAGGSLRLSCAASGRTFANNVMGWYRQAPGKEREFVAAISRSGGITYYADSVKGRFTISRDNAKNTVYLQMNSLKPEDTAVYYCNAEWPFIYRLYRVQHGNDYWGQGTQVTVSS,low polyreactivity
13,QVQLVESGGGLVQAGGSLRLSCAASGRTFAPNAMGWYRQAPGKERELVAAISWSGTSTYYADSVKGRFTISRDNAKNTVYLQMNSLKPEDTAVYYCAPDLEGRVGSPWTYDYWGQGTQVTVSS,low polyreactivity
14,QVQLVESGGGLVQAGGSLRLSCAASGRTFAPYAMGWYRQAPGKERELVAAITYSGGSTYYADSVKGRFTISRDNAKNTVYLQMNSLKPEDTAVYYCAKVDSEYRQVIQQEDDYWGQGTQVTVSS,low polyreactivity
15,QVQLVESGGGLVQAGGSLRLSCAASGRTFAPYTMGWYRQAPGKERELVAAINFNGGGTYYADSVKGRFTISRDNAKNTVYLQMNSLKPEDTAVYYCYYLYNYWGQGTQVTVSS,low polyreactivity
16,QVQLVESGGGLVQAGGSLRLSCAASGRTFAQYTMGWYRQAPGKERELVAAISYRGSSTYYADSVKGRFTISRDNAKNTVYLQMNSLKPEDTAVYYCAVVYSIYTGGYDYWGQGTQVTVSS,high polyreactivity
17,QVQLVESGGGLVQAGGSLRLSCAASGRTFARNALGWYRQAPGKERELVAAITKGGGSTYYADSVKGRFTISRDNAKNTVYLQMNSLKPEDTAVYYCDAYKPSTRRYDYWGQGTQVTVSS,high polyreactivity
18,QVQLVESGGGLVQAGGSLRLSCAASGRTFARNAMGWYRQAPGKERELVASIRWRGGSTYYADSVKGRFTISRDNAKNTVYLQMNRLKPEDTAVYYCATRSPYYVGRGYISYDYWGQGTQVTVSS,high polyreactivity
19,QVQLVESGGGLVQAGGSLRLSCAASGRTFARNPMGWYRHAPGKERELVASIRWRGGSTYYADSVKGRFTISRDNAKNTVYLQMNRLKPEDTAVYYCATRYPYYVGRGYISYDYWGQGTQVTVSS,high polyreactivity
20,QVQLVESGGGLVQAGGSLRLSCAASGRTFASNAMGWYRQAPGKERELVAAISSSGGRTYYADSVKGRFTISRDNAKNTVYLQMNSLKPEDTAVYYCAKVGPVYKYDYWGQGTQVTVSS,high polyreactivity
21,QVQLVESGGGLVQAGGSLRLSCAASGRTFASYAMGWYRQAPAKDRELVAAITSGGSTKYADSVKGRFTISRDNAKNSVYFQMNSLTPEDTAVYYCWRYVFHLSNYYYWGQGTQVTVSS,high polyreactivity
